# According to publication PMC9276669, “Purification, characterization, and preliminary serial crystallography diffraction advances structure determination of full-length human particulate guanylyl cyclase A receptor” (Scientific Reports, 2022):
# “And” between values parts separate entries of the source, which are not always exact repeats. Equal entries are not always repeated.
# Biological target: the molecule itself
# Experiment: SEC; Superose 6 Increase 10/300 GL, 50 mM HEPES-NaOH pH 7.5, 150 mM NaCl, 5 mM DTT, 10% glycerol, 0.05% DDM, 0.01% CHS, 4 °C; more concentrated injected sample (about 300 uL); sizes by comparison with five standard proteins; monomer to tetramer
protein,measurement,value
"full-length human particulate guanylyl cyclase A receptor (pGC-A) (receptor, UniProt P16066 33-1061, looked up, transmembrane domain at residues 474-495; no TEV cleavage step is described; Found as monomer and as tetramer, depending on protein concentration; also called Particulate Guanylyl Cyclase Receptor A; natriuretic peptide receptor A; source: also on whole transfected Sf9 cells) GNLTVAVVLPLANTSYPWSWARVGPAVELALAQVKARPDLLPGWTVRTVLGSSENALGVCSDTAAPLAAVDLKWEHNPAVFLGPGCVYAAAPVGRFTAHWRVPLLTAGAPALGFGVKDEYALTTRAGPSYAKLGDFVAALHRRLGWERQALMLYAYRPGDEEHCFFLVEGLFMRVRDRLNITVDHLEFAEDDLSHYTRLLRTMPRKGRVIYICSSPDAFRTLMLLALEAGLCGEDYVFFHLDIFGQSLQGGQGPAPRRPWERGDGQDVSARQAFQAAKIITYKDPDNPEYLEFLKQLKHLAYEQFNFTMEDGLVNTIPASFHDGLLLYIQAVTETLAHGGTVTDGENITQRMWNRSFQGVTGYLKIDSSGDRETDFSLWDMDPENGAFRVVLNYNGTSQELVAVSGRKLNWPLGYPPPDIPKCGFDNEDPACNQDHLSTLEVLALVGSLSLLGILIVSFFIYRKMQLEKELASELWRVRWEDVEPSSLERHLRSAGSRLTLSGRGSNYGSLLTTEGQFQVFAKTAYYKGNLVAVKRVNRKRIELTRKVLFELKHMRDVQNEHLTRFVGACTDPPNICILTEYCPRGSLQDILENESITLDWMFRYSLTNDIVKGMLFLHNGAICSHGNLKSSNCVVDGRFVLKITDYGLESFRDLDPEQGHTVYAKKLWTAPELLRMASPPVRGSQAGDVYSFGIILQEIALRSGVFHVEGLDLSPKEIIERVTRGEQPPFRPSLALQSHLEELGLLMQRCWAEDPQERPPFQQIRLTLRKFNRENSSNILDNLLSRMEQYANNLEELVEERTQAYLEEKRKAEALLYQILPHSVAEQLKRGETVQAEAFDSVTIYFSDIVGFTALSAESTPMQVVTLLNDLYTCFDAVIDNFDVYKVETIGDAYMVVSGLPVRNGRLHACEVARMALALLDAVRSFRIRHRPQEQLRLRIGIHTGPVCAGVVGLKMPRYCLFGDTVNTASRMESNGEALKIHLSSETKAVLEEFGGFELELRGDVEMKGKGKVRTYWLLGERGSSTRG",stoichiometry N,4 and 2
